Experiment [1] concerns the target mouse HVEM-Fc (mouse; human) (UniProt Q80WM9). Kind of experiment: flow cytometry competition, graded soluble gD against 2 µg/ml mHVEM:Fc on hLIGHT-EL4 cells (FIG. 3G). Background: In flow cytometry, cells or beads pass a laser one at a time.
The target of experiment [2] is mouse HVEM expressed on cells (mouse) (UniProt Q80WM9). The experiment in a line: flow cytometry competition, graded soluble gD against 1.4 µg/ml mBTLA-T on mHVEM-HEK293 cells (FIG. 3G).

A word on the Kd: it is the concentration at which binding is half-saturated.

Chain of mouse HVEM expressed on cells (mouse) (Q80WM9 39-275): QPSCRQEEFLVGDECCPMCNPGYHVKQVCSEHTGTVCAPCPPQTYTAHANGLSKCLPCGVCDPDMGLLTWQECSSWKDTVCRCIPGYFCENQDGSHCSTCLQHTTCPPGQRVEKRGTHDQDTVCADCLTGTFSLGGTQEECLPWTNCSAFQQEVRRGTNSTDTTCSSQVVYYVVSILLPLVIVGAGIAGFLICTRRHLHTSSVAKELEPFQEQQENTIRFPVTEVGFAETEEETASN
Chain of mouse HVEM-Fc (mouse; human) (Q80WM9 39-206 limits assumed): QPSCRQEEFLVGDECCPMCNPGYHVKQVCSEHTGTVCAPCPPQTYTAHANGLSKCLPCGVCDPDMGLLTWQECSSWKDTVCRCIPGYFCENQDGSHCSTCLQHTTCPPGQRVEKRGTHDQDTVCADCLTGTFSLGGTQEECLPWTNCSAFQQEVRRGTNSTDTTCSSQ

On to “purified recombinant soluble gD (gD-1Δ290-299)”, for which the Kd in experiment [1] and in experiment [2] was 250 nM in each case.
